How the values were obtained:
[1] = molecular target: T1, BMPR-II extracellular domain (ECD), human, residues 27-150 (human, UniProt Q13873-1 27-150); assay: native gel or EMSA; 10% native PAGE of purified pBMP10 complex alone or with BMPR-II ECD (molar ratio pBMP10:BMPR-II ECD 1:1, 1:2, 1:4); bands excised and immunoblotted for BMP10 GFD and prodomain; settings: both partners purified
T1 construct: Bone morphogenetic protein receptor type II, human, extracellular domain, residues 27-150 (NM_001204); Cloned in pET39b as DsbA-(His)6-TEV site-BMPR2 ECD; also called BMPR-II ECD; BMPR2 ECD; source: E. coli Rosetta DE3, periplasmic extract, purified (Ni-NTA, TEV cleavage, second Ni-NTA flowthrough, S75 gel filtration); not shown: DsbA, N-terminal, cleaved; His6, N-terminal, cleaved
T1 sequence (looked up): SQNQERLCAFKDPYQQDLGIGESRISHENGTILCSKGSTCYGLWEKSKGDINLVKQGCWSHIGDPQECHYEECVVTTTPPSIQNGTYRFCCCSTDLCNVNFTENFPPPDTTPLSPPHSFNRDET

[2] = molecular target: the molecule itself; assay: non-reducing SDS-PAGE; peak gel filtration fraction of purified pBMP10 on non-reducing SDS-PAGE; Coomassie stain and anti-BMP10 immunoblot

B1: BMP10 growth factor domain (GFD), recombinant human, from the in-house pBMP10 complex (ligand, UniProt O95393 317-424, looked up)
chain: NAKGNYCKRTPLYIDFKEIGWDSWIIAPPGYEAYECRGVCNYPLAEHLTPTKHAIIQALVHLKNSQKASKACCVPTKLEPISILYLDKGVVTYKFKYEGMAVSECGCR
notes: Bone morphogenetic protein 10, human; the mature growth factor domain cut from full-length proBMP10 by furin; Expressed from full-length proBMP10 cDNA, co-transfected with furin; Covalently linked (D-form) and non-covalently linked (M-form) dimers are both in the preparation; also called BMP10 GFD; mature BMP10; source: HEK EBNA cells transfected with proBMP10 and furin in pCEP4; purified from …
[1]
  binding result: binds
[2]
  binding result: binds

From publication PMC4742757, “The Prodomain-bound Form of Bone Morphogenetic Protein 10 Is Biologically Active on Endothelial Cells*” (The Journal of Biological Chemistry, 2015)
